Earlier results on five substances are cited in publication PMC10653114.

One series concerns the target Asp43 (UniProt position 417, WTLTFDFPSGQ). As to conditions: 298 K; Conc. 0.10 (unit not given; K+/Cl–).
The target of the next series is Asp39 (UniProt position 413, PVDGWDLTFSF). As to conditions: 298 K; Conc. 0.10 (unit not given; K+/Cl–).
The next series addresses Asp25 (UniProt position 25, NLIASDGPFPY). As to conditions: 295 K; Conc. 0.10 (unit not given; Na+/Cl–).
The target in a further series is Asp17 (UniProt position 17, PPEATDTLNLI). As to conditions: 295 K; Conc. 0.10 (unit not given; Na+/Cl–).
Another series deals with Asp84 (UniProt position 84, DYYTGDHYATF). The conditions noted are these: 295 K; Conc. 0.10 (unit not given; Na+/Cl–).
The target in another series is Glu54 (UniProt position 54, YGYYHEYTVIT). The conditions noted are these: 295 K; Conc. 0.10 (unit not given; Na+/Cl–).
The target in a further series is Asp93 (UniProt position 93, TFSLIDQTC--). The conditions noted are these: 295 K; Conc. 0.10 (unit not given; Na+/Cl–).
For a further series, the target named is Glu74 (UniProt position 74, RIITGEATQED). As to conditions: 295 K; Conc. 0.10 (unit not given; Na+/Cl–).
For another series, the target named is Glu14 (UniProt position 14, SALPPEATDTL). The conditions noted are these: 295 K; Conc. 0.10 (unit not given; Na+/Cl–).
The next series concerns the target Asp79 (UniProt position 79, EATQEDYYTGD). As to conditions: 295 K; Conc. 0.10 (unit not given; Na+/Cl–).
For a further series, the target named is Asp33 (UniProt position 33, FPYSQDGVVFQ). As to conditions: 295 K; Conc. 0.10 (unit not given; Na+/Cl–).
The next series has as its target Glu78 (UniProt position 78, GEATQEDYYTG). As to conditions: 295 K; Conc. 0.10 (unit not given; Na+/Cl–).
The next series has as its target Glu41 (UniProt position 41, VFQNRESVLPT). As to conditions: 295 K; Conc. 0.10 (unit not given; Na+/Cl–).
The target of another series is Glu52 (UniProt position 134, PKKFNEKYGPE). As to conditions: 298 K; Conc. 0.10 (unit not given; K+/Cl–).
A further series deals with Asp146 (UniProt position 228, SEDNADSGQ--). The conditions noted are these: 298 K; Conc. 0.10 (unit not given; K+/Cl–).
The target of the next series is Asp77 (UniProt position 159, IEVEFDKGQRT). As to conditions: 298 K; Conc. 0.10 (unit not given; K+/Cl–).
The next series concerns the target Glu10 (UniProt position 92, KKLHKEPATLI). The conditions noted are these: 298 K; Conc. 0.10 (unit not given; K+/Cl–).
Another series concerns the target Asp19 (UniProt position 101, LIKAIDGDTVK). The conditions noted are these: 298 K; Conc. 0.10 (unit not given; K+/Cl–).
The target of another series is Glu73 (UniProt position 155, NAKKIEVEFDK). The conditions noted are these: 298 K; Conc. 0.10 (unit not given; K+/Cl–).
In a further series the target is Asp83 (UniProt position 165, KGQRTDKYGRG). The conditions noted are these: 298 K; Conc. 0.10 (unit not given; K+/Cl–).
In another series the target is Glu129 (UniProt position 211, LLRKAEAQAKK). The conditions noted are these: 298 K; Conc. 0.10 (unit not given; K+/Cl–).
In another series the target is Glu75 (UniProt position 157, KKIEVEFDKGQ). As to conditions: 298 K; Conc. 0.10 (unit not given; K+/Cl–).
The next series has as its target Glu122 (UniProt position 204, GNNTHEQLLRK). The conditions noted are these: 298 K; Conc. 0.10 (unit not given; K+/Cl–).
The target of a further series is Glu142 (UniProt position 224, LNIWSEDNADS). As to conditions: 298 K; Conc. 0.10 (unit not given; K+/Cl–).
In another series the target is Glu57 (UniProt position 139, EKYGPEASAFT). The conditions noted are these: 298 K; Conc. 0.10 (unit not given; K+/Cl–).
The target of the next series is Asp143 (UniProt position 225, NIWSEDNADSG). As to conditions: 298 K; Conc. 0.10 (unit not given; K+/Cl–).
The next series concerns the target Asp95 (UniProt position 177, AYIYADGKMVN). As to conditions: 298 K; Conc. 0.10 (unit not given; K+/Cl–).
The next series deals with Asp21 (UniProt position 103, KAIDGDTVKLM). The conditions noted are these: 298 K; Conc. 0.10 (unit not given; K+/Cl–).
A further series addresses Glu67 (UniProt position 149, TKKMVENAKKI). As to conditions: 298 K; Conc. 0.10 (unit not given; K+/Cl–).
The next series deals with Glu43 (UniProt position 125, LVDTPETKHPK). As to conditions: 298 K; Conc. 0.10 (unit not given; K+/Cl–).
A further series addresses Glu101 (UniProt position 183, GKMVNEALVRQ). The conditions noted are these: 298 K; Conc. 0.10 (unit not given; K+/Cl–).
The target of another series is Glu135 (UniProt position 217, AQAKKEKLNIW). As to conditions: 298 K; Conc. 0.10 (unit not given; K+/Cl–).
A further series deals with Asp40 (UniProt position 122, RLLLVDTPETK). The conditions noted are these: 298 K; Conc. 0.10 (unit not given; K+/Cl–).

What is called pKa is the pH at which an ionisable group is half protonated. With “Highly charge-depleted protein (PDB 6QFS), S43D/T66H variant (Cellulomonas fimi (parent domain; not stated in the article); S43D;T66H (on the 6QFS charge-depleted background; background substitutions not stated))”, the pKa in the series with Asp43 is recorded as 4.32 ± 0.02.
For the substance “Highly charge-depleted protein (PDB 6QFS), T39D variant (Cellulomonas fimi (parent domain; not stated in the article); T39D (on the 6QFS charge-depleted background; background substitutions not stated))”, the pKa with Asp39 is on record as 5.
As for “Highly charge-depleted protein (PDB 6QFS), T39D/T66H variant (Cellulomonas fimi (parent domain; not stated in the article); T39D;T66H (on the 6QFS charge-depleted background; background substitutions not stated))”, the pKa with Asp39 was 4.07 ± 0.02.
For “Ribonuclease Sa (Streptomyces aureofaciens)”, the pKa is on record as 4.87 ± 0.07 in the series with Asp25; 3.72 ± 0.07 with Asp17; 3.01 ± 0.07 with Asp84; 3.42 ± 0.07 with Glu54; 3.09 ± 0.07 with Asp93; 3.47 ± 0.07 in the series with Glu74. For the same substance, the pKa with Glu14 is recorded as 5.02 ± 0.07; with Asp79, 7.37 ± 0.07; with Asp33, 2.39 ± 0.07; with Glu78 it was 3.13 ± 0.07; with Glu41 it was 4.14 ± 0.07.
Take “Staphylococcal nuclease, Delta+PHS variant (Staphylococcus aureus; G50F;V51N;P117G;H124L;S128A;del44-49)”: the pKa with Glu52 is listed as 3.93 ± 0.08; with Asp146, 3.86 ± 0.05; with Asp77, below 2.2; in the series with Glu10, 2.82 ± 0.09; with Asp19, 2.21 ± 0.07; with Glu73, 3.31 ± 0.01. Also, the pKa is given as below 2.2 with Asp83; 3.75 ± 0.09 with Glu129; 3.26 ± 0.05 in the series with Glu75; 3.89 ± 0.09 with Glu122; 4.49 ± 0.04 with Glu142; 3.49 ± 0.09 with Glu57. The pKa was 3.8 ± 0.1 with Asp143; 2.16 ± 0.07 with Asp95; 6.53 ± 0.02 in the series with Asp21; 3.76 ± 0.07 in the series with Glu67; 4.32 ± 0.04 in the series with Glu43; 3.81 ± 0.1 in the series with Glu101. In addition, the pKa with Glu135 is recorded as 3.76 ± 0.08; with Asp40 it was 3.87 ± 0.09.
